Laboratory results from patent US20210322404A1, “FGFR REGULATION FOR THE TREATMENT OF VIRAL INFECTIONS” (ETH ZURICH, priority 2016, published 2021).
“Also recorded” adds a separate entry of the source.

Legend:
[1] = test system: HSV-1; assay: HSV-1 infection of HaCaT cells, virus load; format: cell-based, Herpes Simplex Virus type 1
Method: FIGS. 5A-C relate to HaCaT cells infected with HSV-1 (MOI=0.5) after overnight serum starvation, either alone or in combination with FGF7 (10 ng/ml) or IFNα (1000U/ml). 24 h after infection, virus load was determined by qPCR for the HSV-1 Glycoprotein B (Glyc-B) gene relative to the human β-actin gene (A) or visualized by immunofluorescence staining for HSV-1 Glycoprotein D (Glyc-D) (red) (B). The Glyc-B/β-actin gene ratio in HSV-1 infected cells was set to 1. Cell nuclei were stained with DAPI (blue). Magnification bar: 200 μm. (C) Transmission microscopy images of HaCaT cells taken 48 h after HSV-1 infection. […] Magnification bar: 80 μm. Representative data out of four experiments are shown.
FIGS. 5 D & E relate to overnight-starved HaCaT cells infected with HSV-1 (MOI=0.5) alone or in combination with IFNα (1000 U/ml), IFNα and FGF7 (10 ng/ml) (D); or FGF7 at different concentrations (E).
FIG. 5F pertains to serum-starved HaCaT cells that were infected with HSV-1 (MOI 0.5-1). After 4 h, infected cells were washed with PBS, followed by addition of fresh serum-free culture medium containing FGF7 (10 ng/ml).
FIGS. 5G-K pertains to overnight-starved HaCaT cells infected with HSV-1 (MOI=0.5) alone or in combination with FGF7, which was added at the indicated time points. 12 h after infection, cells were analyzed for Glyc-B DNA (H) and, RSAD2 and IRF7 mRNA levels by qPCR/qRT-PCR (I) or for ISG protein levels by western blotting (K). Vinculin was used as loading control.
FIGS. 7A-C relate to serum-starved HaCaT cells that were infected with HSV-1 in the presence or absence of FGF7 (10 ng/ml), NSC23766 (20 μM), the FGFR kinase inhibitors AZD4547 (1 μM) and BGJ398 (3.5 μM) (A) or IFNα (1000 U/ml) (B). […] Magnification bar: 500 μm. The Glyc-D positive area was quantified using digital pixel measurements (C, right). A representative out of two experiments is shown.
Frozen sections from mouse back skin were fixed with cold methanol, and unspecific binding sites were blocked with PBS/2% bovine serum albumin (BSA) (Sigma)/1% fish skin gelatin (Sigma)/0.05% Triton X-100 (Carl Roth GmbH, Karlsruhe, Germany) for 2 h at room temperature. Samples were then incubated overnight at 4° C. with anti-IRF7 or anti-K14 antibodies diluted in the same buffer. After three washes with 1×PBS/0.1% Tween 20 (Carl Roth GmbH), slides were incubated at room temperature (RT) for 4 h with secondary antibodies (AF555-conjugated anti-rabbit IgG and AF488-conjugated anti-mouse IgG) and DAPI (4′,6-diamidino-2-phenylindole dihydrochloride) (Sigma) as counter-stain, washed again and mounted with Mowiol (Hoechst, Frankfurt, Germany). Stained sections were photographed with a Leica SP1-2 confocal microscope equipped with a 63×0.6-1.32 NA (Iris) PL Apo Oil objective. For data acquisition the Leica Confocal Software (Leica, Wetzlar, Germany) was used. For immunofluorescence staining of cultured cells, they were washed with PBS and either fixed for 5 min with cold methanol for staining with antibodies against ZO-1 and IRF7, or with 4% paraformaldehyde (PFA) (Sigma) for 20 min at RT for Glyc-D staining. PFA-fixed cells were then incubated for 10 min with 0.5% Triton X-100 in PBS. After 1 h blocking in PBS containing 2% BSA, cells were stained with the primary antibodies for 1 h in the same blocking buffer. After three washes with PBS, cells were incubated with the secondary antibodies (AF555-conjugated anti-mouse IgG, AF488-conjugated anti-mouse IgG and AF555-conjugated anti-rabbit IgG) and DAPI.

[2] = test system: HSV-1; assay: Ex vivo HSV-1 infection of epidermal sheets from mouse tail skin; format: cell-based, Herpes Simplex Virus type 1; details: HSV-1 MOI=2, 48 h, FGF7 15 ng/ml, NSC23766 50 μM, AZD4547 1 μM
Method: FIG. 7D pertains to epidermal sheets from tail skin of wild-type mice that were infected ex vivo with HSV-1 (MOI=2) in the presence or absence of IFNα, FGF7, NSC23766 or AZD4547 and analyzed by immunofluorescence staining 48 h after infection with antibodies against Glyc-D (red). […] Cell nuclei were stained using DAPI (blue). Magnification bar: 800 μm. Values obtained for HSV-1 infected cells in (A-C) without additional treatment were set to 1.
HSV-1 infection of epidermal sheets from mouse tails was performed as previously described (Rahn et al., J. Invest. Dermatol 135, 3009-3016, 2015). Briefly, skin was removed from the tails of 3 month-old mice, followed by separation of the epidermis from the dermis by dispase treatment (5 mg/ml). After floating the epidermal sheets on serum-free DMEM overnight, they were incubated with HSV-1 alone (MOI=2) or in combination with FGF7 (15 ng/ml), IFNα (1000 U/ml) and/or NSC23766 (50 μM) or AZD4547 (1 μM) for 48 h and subsequently fixed in 4% PFA for 1 h at RT. The sheets were then incubated in blocking solution (PBS 2% BSA/1% fish skin gelatin/0.05% Triton Tx-100) for 2 h at RT and stained overnight at 4° C. with an antibody against Glyc-D diluted in blocking solution. […]

[3] = test system: interferon-stimulated genes (ISGs); assay: ISG expression in mouse keratinocytes treated with FGF7 and/or IFNα (qRT-PCR); format: cell-based
[4] = test system: LCMV; format: cell-based, Lymphocytic Choriomeningitis Virus; details: HaCaT, LCMV MOI 0.05 or 0.2
[5] = test system: ISGs; details: cultured lung airway epithelial cells, Prince et al.; cited from earlier work
[6] = test system: HSV-1; assay: HSV-1 infection of human primary foreskin keratinocytes; details: HSV-1 MOI=0.5, 24 h

B1: FGF7: recombinant human FGF7, the classical ligand of FGFR2b (protein, UniProt P21781 32-194, looked up)
Fibroblast growth factor 7: CNDMTPEQMATNVNCSSPERHTRSYDYMEGGDIRVRRLFCRTQWYLRIDKRGKVKGTQEMKNNYNIMEIRTVAVGIVAIKGVESEFYLAMNKEGKLYAKKECNEDCNFKELILENHYNTYASAKWTHNGGEMFVALNQKGIPVRGKKTKKEQKTAHFLPMAIT
- viral DNA, FGF7 given after removal of the virus ([1]; HaCaT infected 4 h, virus removed, FGF7 10 ng/ml for 8 h): A strong increase in viral DNA
- appearance of HSV-1 infected cells (transmission microscopy) ([1]; HaCaT, 48 h after infection): completely detached
- IFNα-mediated reduction in viral DNA ([1]; HaCaT, HSV-1, IFNα 1000 U/ml and FGF7 10 ng/ml): partially reverted
- levels of viral DNA at different FGF7 concentrations ([1]; HaCaT, HSV-1 MOI=0.5): induced the levels of viral DNA in a dose-dependent manner
- HSV-1 glycoprotein D (Glyc-D) immunofluorescence staining ([1]; HaCaT, HSV-1 MOI=0.5, FGF7 10 ng/ml): increased strongly
- viral glycoprotein B (Glyc-B) DNA ([1]; HaCaT, HSV-1 MOI=0.5, FGF7 10 ng/ml or IFNα 1000 U/ml): A strong increase in viral DNA
- HSV-1 replication, FGF7 present only for 4h ([1]; HaCaT, analysis 12 h after infection): no longer promoted
- HSV-1 replication, FGF7 added with the virus or 2h or 4h post infection ([1]; HaCaT, exposed to FGF7 for 12h, 10h or 8h): strongly promoted HSV-1 replication
- HSV-1 infection / viral dissemination (Glyc-D staining) [2]: stronger; also recorded: A strong increase in infected cells
- expression of Ifnα subtypes, Ifnβ and Il28a (Ifnλ2) ([3]; mouse keratinocytes, FGF7 10 ng/ml): not reduced
- increase in ISG expression in response to IFNα ([3]; mouse primary keratinocytes, FGF7 10 ng/ml and IFNα 1000 U/ml, 6 h): reduced
- ISG expression (qRT-PCR relative to Rps29) ([3]; primary and immortalized keratinocytes from wild-type mice, FGF7 10 ng/ml, 3 or 6 h): strongly suppressed
- expression of ISGs in IFNAR-deficient cells ([3]; primary keratinocytes from Ifnar KO mice, FGF7 6 h): still suppressed expression of ISGs
- expression levels of LCMV nucleoprotein (NP) / viral replication [4]: strongly increased
- expression of ISGs [5]: suppresses the expression of a limited number of ISGs
- effect on HSV-1 infection (Glyc-B qPCR) [6]: confirmed
